We go through 2 molecules from PMC4157330, “Molecular assembly of the period-cryptochrome circadian transcriptional repressor complex” (eLife, 2014).

Experiment [1] has as its target T1, mouse CRY2 (amino acids 1–512) (mouse, UniProt Q9R194 1-512).
T1 construct: Cryptochrome 2 (CRY2), mouse, residues 1-512, photolyase-homology region (PHR); also called CRY2-PHR; mCRY2
T1 sequence (looked up): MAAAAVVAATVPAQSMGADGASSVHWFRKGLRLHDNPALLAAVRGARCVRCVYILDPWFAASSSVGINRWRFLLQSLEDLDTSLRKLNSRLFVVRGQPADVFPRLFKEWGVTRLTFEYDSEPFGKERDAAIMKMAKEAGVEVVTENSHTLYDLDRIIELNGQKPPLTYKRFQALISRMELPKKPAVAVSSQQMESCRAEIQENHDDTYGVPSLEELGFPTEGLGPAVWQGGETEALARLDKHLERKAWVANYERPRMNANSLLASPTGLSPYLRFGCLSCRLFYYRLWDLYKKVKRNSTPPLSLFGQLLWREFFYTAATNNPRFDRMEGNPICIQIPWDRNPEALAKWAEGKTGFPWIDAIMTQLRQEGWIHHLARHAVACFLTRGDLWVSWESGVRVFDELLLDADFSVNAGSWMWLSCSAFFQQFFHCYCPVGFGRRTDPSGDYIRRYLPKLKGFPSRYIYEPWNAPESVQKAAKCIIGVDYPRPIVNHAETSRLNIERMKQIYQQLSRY
Kind of experiment: crystal structure; complex of purified CRY2 (1–512) and PER2 (1095–1215); crystals grown at 4°C, hanging drop, 100 mM HEPES pH 7.5, 200 mM NaCl, 15% PEG 3350; 2.8 Å. The conditions noted are these: both partners purified.

For experiment [2], the target named is T1, mouse CRY2 (amino acids 1–512). Kind of experiment: pull-down; GST-PER2 immobilised on glutathione beads, CRY2-PHR incubated at 4°C for 1 hr; SDS-PAGE, Coomassie stain. The conditions noted are these: both partners purified.

B1: murine PER2 (amino acids 1095–1215) (domain or fragment, mouse, UniProt O54943 1095-1215, looked up)
chain: SSDTSHTSKYFGSIDSSENNHKAKMIPDTEESEQFIKYVLQDPIWLLMANTDDSIMMTYQLPSRDLQAVLKEDQEKLKLLQRSQPRFTEGQRRELREVHPWVHTGGLPTAIDVTGCVYCES
notes: also called PER2-CBD
For the molecule B1, the binding result in experiment [1] is recorded as “binds”.

B2: GST-tagged mPER2 WT (amino acids 1095–1215) (domain or fragment, mouse, UniProt O54943 1095-1215, looked up)
chain: SSDTSHTSKYFGSIDSSENNHKAKMIPDTEESEQFIKYVLQDPIWLLMANTDDSIMMTYQLPSRDLQAVLKEDQEKLKLLQRSQPRFTEGQRRELREVHPWVHTGGLPTAIDVTGCVYCES
notes: also called WT PER2-CBD; GST-PER2; source: E. coli, purified
Regarding B2, the binding result in experiment [2] is “binds”.
